The record followed here is publication PMC12209146.

For this assay, the target named is toxin B (TcdB) from Clostridioides difficile VPI 10,463 (Clostridioides difficile VPI 10,463) (UniProt P18177).

“And” between values parts separate entries of the source, which are not always exact repeats. Identical values can stand only once.

Chain of toxin B (TcdB) from Clostridioides difficile VPI 10,463 (Clostridioides difficile VPI 10,463) (P18177 whole entry): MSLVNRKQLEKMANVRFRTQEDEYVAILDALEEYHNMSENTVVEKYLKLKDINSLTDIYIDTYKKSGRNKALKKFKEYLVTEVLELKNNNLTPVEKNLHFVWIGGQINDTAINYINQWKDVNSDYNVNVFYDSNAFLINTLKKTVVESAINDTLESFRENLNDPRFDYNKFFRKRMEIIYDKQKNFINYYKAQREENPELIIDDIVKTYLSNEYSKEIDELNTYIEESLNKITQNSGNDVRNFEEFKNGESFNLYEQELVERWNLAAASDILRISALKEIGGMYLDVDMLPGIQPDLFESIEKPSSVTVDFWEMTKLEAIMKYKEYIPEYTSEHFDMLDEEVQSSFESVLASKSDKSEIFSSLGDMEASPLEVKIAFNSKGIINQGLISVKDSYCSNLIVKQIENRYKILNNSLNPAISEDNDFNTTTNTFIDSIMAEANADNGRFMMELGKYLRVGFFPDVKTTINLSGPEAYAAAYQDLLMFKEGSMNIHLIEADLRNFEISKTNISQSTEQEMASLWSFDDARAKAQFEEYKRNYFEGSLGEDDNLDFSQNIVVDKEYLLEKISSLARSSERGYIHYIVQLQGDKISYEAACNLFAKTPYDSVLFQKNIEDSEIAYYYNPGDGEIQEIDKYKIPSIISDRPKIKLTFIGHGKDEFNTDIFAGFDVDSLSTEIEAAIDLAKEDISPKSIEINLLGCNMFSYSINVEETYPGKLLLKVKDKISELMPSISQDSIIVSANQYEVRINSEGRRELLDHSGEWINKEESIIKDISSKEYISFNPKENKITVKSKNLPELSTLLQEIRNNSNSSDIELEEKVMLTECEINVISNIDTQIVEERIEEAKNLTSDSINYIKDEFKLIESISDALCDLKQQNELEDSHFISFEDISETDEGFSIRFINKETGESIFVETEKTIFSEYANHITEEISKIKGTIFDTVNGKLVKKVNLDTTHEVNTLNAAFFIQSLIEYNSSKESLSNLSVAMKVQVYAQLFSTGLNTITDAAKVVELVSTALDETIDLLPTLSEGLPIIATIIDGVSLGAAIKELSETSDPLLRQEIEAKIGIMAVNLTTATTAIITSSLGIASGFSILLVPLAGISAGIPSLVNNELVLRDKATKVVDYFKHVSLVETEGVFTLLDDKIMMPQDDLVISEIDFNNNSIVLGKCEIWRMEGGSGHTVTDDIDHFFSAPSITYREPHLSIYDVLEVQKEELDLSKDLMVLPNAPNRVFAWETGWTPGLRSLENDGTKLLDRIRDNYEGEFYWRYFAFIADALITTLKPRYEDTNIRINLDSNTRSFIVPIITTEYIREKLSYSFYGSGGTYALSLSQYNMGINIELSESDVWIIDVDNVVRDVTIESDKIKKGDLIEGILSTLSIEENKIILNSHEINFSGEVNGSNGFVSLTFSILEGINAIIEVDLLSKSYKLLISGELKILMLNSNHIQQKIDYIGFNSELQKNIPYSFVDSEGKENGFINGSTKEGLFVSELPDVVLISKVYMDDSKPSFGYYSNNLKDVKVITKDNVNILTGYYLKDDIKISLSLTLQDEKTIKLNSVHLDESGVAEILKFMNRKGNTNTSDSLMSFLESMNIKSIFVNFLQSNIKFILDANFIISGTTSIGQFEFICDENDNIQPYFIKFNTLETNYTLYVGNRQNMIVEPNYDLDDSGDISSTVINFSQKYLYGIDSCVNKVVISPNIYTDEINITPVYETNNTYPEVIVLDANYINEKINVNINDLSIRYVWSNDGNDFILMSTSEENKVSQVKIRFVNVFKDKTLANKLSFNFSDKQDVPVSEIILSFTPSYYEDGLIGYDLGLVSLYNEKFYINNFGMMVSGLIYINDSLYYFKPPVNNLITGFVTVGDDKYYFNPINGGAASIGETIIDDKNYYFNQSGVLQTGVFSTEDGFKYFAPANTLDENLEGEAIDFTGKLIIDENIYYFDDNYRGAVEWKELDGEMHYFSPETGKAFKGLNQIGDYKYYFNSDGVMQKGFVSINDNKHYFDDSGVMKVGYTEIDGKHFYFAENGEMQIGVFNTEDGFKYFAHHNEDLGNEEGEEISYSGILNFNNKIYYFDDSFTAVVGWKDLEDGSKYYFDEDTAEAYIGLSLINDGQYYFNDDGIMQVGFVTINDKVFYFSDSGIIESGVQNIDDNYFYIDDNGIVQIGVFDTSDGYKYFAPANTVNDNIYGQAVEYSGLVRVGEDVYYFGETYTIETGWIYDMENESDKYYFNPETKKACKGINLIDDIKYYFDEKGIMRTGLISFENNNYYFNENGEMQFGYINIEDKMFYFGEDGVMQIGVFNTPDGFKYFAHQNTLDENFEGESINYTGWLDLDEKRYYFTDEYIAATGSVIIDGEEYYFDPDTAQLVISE

B1: Angie 5 (peptide)
peptide: KFINIFIHGNKRSIKAI
Take B1: the other was 40.9 µM and 46.3 µM.
